Data set [1] in a line: Phase Ib study CVAY736Y2102: pharmacokinetics of VAY736. It counts as in vivo, human. To be noted: in combination with ibrutinib. An excerpt: (§1) The dosing cycle is 28 days. […] During the dose expansion part of the study, ibrutinib will be continued at the same dose schedule as tolerated before study enrollment, see exclusion criteria above for additional information on dose level.

In another data set the target is T1, BAFF receptor (Homo sapiens, UniProt Q96RJ3).
T1 construct: endogenous in cells; host or cells: B cells / tissue of CLL patients in study CVAY736Y2102 (for A6: simulated by a PK/PD model, not measured)
The experiment in a line: Phase Ib study CVAY736Y2102: BAFF receptor occupancy. The class given is in vivo. The settings on record: VAY736 doses of 3 mg/kg or above.
Text: as §1

Another data set deals with BAFF. In words: Phase Ib study CVAY736Y2102: free (soluble) BAFF. The arrangement: species or system human. The settings on record: in vivo.
Text: as §1

Another data set deals with BTK^C481S (Homo sapiens, UniProt Q06187, C481S). To be noted: cited from earlier work.
Sequence of BTK^C481S (Q06187 whole entry C481S): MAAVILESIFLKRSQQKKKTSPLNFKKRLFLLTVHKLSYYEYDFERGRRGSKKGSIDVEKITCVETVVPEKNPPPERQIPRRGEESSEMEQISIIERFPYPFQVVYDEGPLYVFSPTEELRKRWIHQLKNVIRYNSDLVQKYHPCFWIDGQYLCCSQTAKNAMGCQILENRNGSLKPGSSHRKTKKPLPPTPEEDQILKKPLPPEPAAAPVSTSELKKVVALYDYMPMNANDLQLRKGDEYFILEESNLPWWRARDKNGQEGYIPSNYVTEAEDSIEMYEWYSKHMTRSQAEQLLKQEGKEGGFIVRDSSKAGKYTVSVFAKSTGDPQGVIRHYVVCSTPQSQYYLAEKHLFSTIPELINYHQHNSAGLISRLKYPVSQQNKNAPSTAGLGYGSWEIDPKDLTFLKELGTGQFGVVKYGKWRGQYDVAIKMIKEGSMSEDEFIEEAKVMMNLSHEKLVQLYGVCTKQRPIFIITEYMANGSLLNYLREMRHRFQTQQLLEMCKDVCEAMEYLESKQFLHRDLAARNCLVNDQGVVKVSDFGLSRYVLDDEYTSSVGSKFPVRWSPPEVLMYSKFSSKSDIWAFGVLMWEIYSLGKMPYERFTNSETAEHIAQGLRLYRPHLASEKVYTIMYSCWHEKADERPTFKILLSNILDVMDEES

This is an account of results in US20230340136A1, “TREATMENT OF CLL” (NOVARTIS AG, priority 2020, published 2023).

In the case of “VAY736: non-fucosylated human IgG1 kappa anti-BAFFR antibody, heavy chain SEQ ID NO: 9, light chain SEQ ID NO: 10”, in data set [1], the “VAY736 concentration: dose dependence” value is “increased with dose” and the “dose at which linear PK achieved” value is at least 3 mg/kg. The compound further returned a Tissue receptor occupancy in the data set with BAFF receptor above 99%. In addition, in the data set on BAFF, the “Free BAFF” value was “accumulated to steady state with no dose relationship”.
Take `C[C@H]1CN(C2COC2)CCN1c1ccc(Nc2cc(-c3ccnc(N4CCn5c(cc6c5CC(C)(C)C6)C4=O)c3CO)cn(C)c2=O)nc1` [fenebrutinib]: at BTK^C481S, the “activity against ibrutinib-resistant BTK^C481S mutation” value is “active against ibrutinib-resistant BTK^C481S”.
